Experiment [1] addresses T1, human CD79b recombinant protein (human, UniProt P40259 29-159).
T1 construct: also called human CD79b ECD antigen; recombinant human CD79b ECD
T1 sequence: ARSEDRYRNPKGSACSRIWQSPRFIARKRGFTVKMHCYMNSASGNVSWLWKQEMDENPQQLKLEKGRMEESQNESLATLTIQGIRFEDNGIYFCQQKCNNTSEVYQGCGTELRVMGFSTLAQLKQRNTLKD
The experiment is described as follows: ELISA on recombinant human CD79b ECD; A 450nm. On the technique in general: An ELISA detects its analyte on a solid surface through an enzyme-linked reagent.

The target of experiment [2] is T2, CD79b endogenously expressed on the cell surface (malignant B cell lines, normal B cells in PBMC, CLL … (human, UniProt P40259 29-229)).
T2 construct: whole, on cells; On cells CD79b stands in the B-cell receptor complex with CD79a and surface Ig; also called cell surface CD79b; endogenous CD79b
T2 sequence (looked up): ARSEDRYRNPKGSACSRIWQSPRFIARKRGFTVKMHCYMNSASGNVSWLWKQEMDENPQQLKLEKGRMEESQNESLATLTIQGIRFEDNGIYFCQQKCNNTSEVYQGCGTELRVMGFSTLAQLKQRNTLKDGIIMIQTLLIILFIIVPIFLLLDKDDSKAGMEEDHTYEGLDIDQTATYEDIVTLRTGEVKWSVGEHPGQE
The experiment is described as follows: flow cytometry on a cell line expressing endogenous CD79b (not named on the sheet or in the text); MFI (PE). (Flow cytometry measures light scatter and fluorescence of single cells or particles in a stream.)

The target of experiment [3] is T1, human CD79b recombinant protein. The experiment is described as follows: BLI, antibody captured on anti-human IgG Fc probes, human CD79b in solution, 1:1 model. On the procedure: (§1) Binding affinities of anti-CD79b antibodies to human CD79b recombinant proteins were tested by BLI. 10 ug/ml of anti-CD79b antibodies were captured by anti-human IgG Fc probes (Gator Bio Catalog #160024). […] Absolute kD was determined by applying a 1:1 binding model (Global Rmax unlinked).
On the technique in general: In BLI a coated tip is dipped into the sample, and binding shifts an interference pattern.

For experiment [4], the target named is T2, CD79b endogenously expressed on the …. The experiment is described as follows: flow cytometry on BJAB cells; anti-human IgG1-PE; MFI (PE); table under the graph. On the procedure:
(§2) The binding affinities of anti-CD79b antibodies to malignant B cell lines were tested. […] The cells were then incubated with 100 μl anti-human IgG1-PE (Invitrogen, cat: 12-4998-82), 1:1000 dilution, for 30 min on ice, washed with 200 ul PBS for three times before flow cytometry analysis.

For experiment [5] the target is unchanged. The experiment is described as follows: flow cytometry on PBMC of Donor 356, B cells marked with CD19-BV421; anti-human IgG1-PE; MFI (PE); table under the graph. On the procedure:
(§3) The binding affinities of anti-CD79b antibodies to endogenous B cells were tested. […] The cells were then incubated with […] mixture of anti-human IgG1-PE (Invitrogen, Cat #: 12-4998-82), 1:1000 dilution; CD19-BV421 (Biolegend, Cat #:302230, 1:400 dilution) for 30 min on ice, and washed with 200 ul PBS for three times before flow cytometry analysis.

Experiment [6] deals with T1, human CD79b recombinant protein. The experiment is described as follows: BLI; antibody at 10 ug/ml captured on anti-human IgG Fc probes, hCD79b in solution; same value printed in the rows for 18.3 and 9.14 nM hCD79b. On the procedure:
as §1

Experiment [7] deals with T2, CD79b endogenously expressed on the …. Briefly: flow cytometry on Nalm-6 cells; anti-human IgG1-PE; MFI (PE); table under the graph. On the procedure: as §2
Experiment [8] shares this target. The experiment is described as follows: flow cytometry on Daudi cells; anti-human IgG1-PE; MFI (PE); table under the graph. On the procedure:
as §2

Experiment [9] shares this target. The experiment is described as follows: flow cytometry on PBMC of Donor 2235, B cells marked with CD19-BV421; anti-human IgG1-PE; MFI (PE); table under the graph. On the procedure: as §3
For experiment [10] the target is unchanged. The experiment is described as follows: flow cytometry on PBMC of CLL Donor 0255 (B lymphocytes); PE goat anti-human IgG Fc; MFI PE. On the procedure: To determine the binding affinities of the anti-CD79b antibodies to cell surface CD79b on Chronic Lymphocytic Leukemia (CLL) patient's B lymphocytes, a cell-based binding assay was conducted. […] CLL patient PBMCs were purchased from the company Bioscience. […] Specifically, 2.5×10⁴ PBMC cells in 50 μl FACS buffer (1×PBS+2% BSA+2 mM EDTA) were seeded in each well of a V bottom 96-well plate. […] The mixture was incubated on ice for 30 minutes, and then washed twice with FACS buffer. The cells were re-suspended in 100 μl FACS buffer containing PE conjugated goat anti-human IgG Fc (1:1000) and anti-human CD19 (BV421), and incubated for 30 minutes on ice in darkness. After washing twice with FACS buffer, the cells were re-suspended in 100 μl of FACS buffer and analyzed with a Cytek cytometer.

Experiment [11] shares this target. Briefly: flow cytometry on PBMC of Donor 889, B cells marked with CD19-BV421; anti-human IgG1-PE; MFI (PE); table under the graph. On the procedure:
as §3

The target is the same in experiment [12]. Briefly: flow cytometry on SU-DHL-4 cells; anti-human IgG1-PE; MFI (PE); table under the graph. On the procedure: as §2
Experiment [13] has the same target. The experiment is described as follows: flow cytometry on Ramos cells; anti-human IgG1-PE; MFI (PE); table under the graph. On the procedure:
as §2

The target is the same in experiment [14]. The experiment is described as follows: flow cytometry on PBMC of Donor 2890, B cells marked with CD19-BV421; anti-human IgG1-PE; MFI (PE); table under the graph. On the procedure:
as §3

The target in experiment [15] is T1, human CD79b recombinant protein. Briefly: ELISA, coated human CD79b recombinant protein. On the procedure:
(§4) Binding affinities of anti-CD79b antibodies to human and cynomolgus CD79b recombinant proteins were tested by ELISA. 1 ug/ml (in PBS buffer) of human or cynomolgus CD79b recombinant proteins were coated on an ELISA plate overnight. ELISA plates were washed and blocked with blocking buffer (PBS+1% BSA) followed by incubation with serially diluted anti-CD79b primary antibodies. Anti-CD79b antibody binding was quantified using an anti-human IgG HRP secondary antibody (Biolegend Catalog #410902) and HRP substrate.

Experiment [16] has as its target T3, cynomolgus CD79b recombinant protein (cynomolgus).
T3 chain: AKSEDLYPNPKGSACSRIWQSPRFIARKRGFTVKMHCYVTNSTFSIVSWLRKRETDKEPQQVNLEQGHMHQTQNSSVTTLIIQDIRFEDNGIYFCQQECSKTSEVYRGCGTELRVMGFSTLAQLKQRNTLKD
Briefly: ELISA, coated cynomolgus CD79b recombinant protein. On the procedure:
as §4

Residue numbers refer to the chain shown, from its start.

By EC50 (read off the curve) is commonly meant the concentration that produces a half-maximal response. Broadly, the Kd is the free concentration of one partner at which half of the binding sites on the other are occupied at equilibrium, for simple one-to-one binding. A word on the EC50: it is the concentration that produces a half-maximal response. Read a low EC50 as a more potent agent. In general, koff refers to the first-order rate constant of dissociation. In general, kon refers to the second-order rate constant of association. In general, IC50 refers to the point on the concentration scale where inhibition reaches its midpoint.

B1: hu44G2 (antibody, V domains shown)
VH: EQQLVETGGGLIQPGGSLRLSCAASGFTINIDYWISWVRQAPGKGLEWIGIIDPGDGTTYFAIWVSGRFTISFDNSKNTVYLQMNSLRAEDTAVYFCVREFSASAYQYDLWGPGTLVTVSS
VL: ELVMTQSPATLSVSPGERATLSCRASEDIENYLAWYQQKPGQPPRLLIYRASTLSSGVPARFSGSGSGTEFTLTISSLQSEDFAVYYCQQGYRNSNVDNPFGGGTKVEIK
notes: Humanized antibody; also called humanized 44G2
Regarding B1, the “EC50 (read off the curve)” value in experiment [1] and in experiment [2] was roughly 0.2 nM in each case.

B2: hu57B9 (antibody, V domains shown)
VH: B1 VH with G26E, F73R, N75T, V98A, F101V
VL: B1 VL with R24Q, N31S, R50F, A51T, T53N, S55A, F71Y, N96D, D98H
notes: Humanized antibody; also called humanized 57B9
For the molecule B2, the entries for the “EC50 (read off the curve)” value in [1] and in [2] were roughly 0.08 nM and roughly 0.2 nM, respectively.

B3: hu48H10 (antibody, V domains shown)
VH: B1 VH with F73T, V98A
VL: B1 VL with R24Q, N31S, A34T, I48M, G64A, S95K, N96D
notes: Humanized antibody; also called humanized 48H10
In the case of B3, the concentration for a half-maximal effect (EC50 (read off the curve)) in [1] is roughly 0.1 nM; in experiment [2], roughly 0.5 nM.

B4: ch48H10 (antibody, human IgG1, kappa, V domains shown)
VH: QSVKETGGGLVQPGGSLTLSCKASGFTINIDYWISWVRQAPGKGLEWIGIIDPGDGTTYFAIWVSGRFTISTDNAQNTVDLQMNSLTAADTATYFCAREFSASAYQYDLWGPGTLVTVSS
VL: ALVMTQTPSSVSAAVGGTVSINCQASEDIESYLTWYQQKPGQPPKLLMYRASTLSSGVSSRFSASGSGTEFTLTISGVQPDDAATYYCQQGYRNKDVDNPFGGGTEVVVKR
notes: Rabbit/human chimeric IgG1 kappa; also called chimeric 48H10
Consider B4, for which the Kd in [3] amounted to 0.0314 nM. Also, the EC50 stood at 0.98 nM in [4]; 0.446 nM in experiment [5]; 2.69 nM in [7]; 1.38 nM in experiment [8]; 0.272 nM in experiment [9]; 0.154 nM in experiment [11]. For the same molecule, the figures for the concentration giving a half-maximal response (EC50) in experiment [12], in experiment [13] and in experiment [14] were 0.98 nM, 1.32 nM and 1.17 nM, respectively. Besides, the koff in [6] came out at 1.09e-05 s⁻¹. Further, in [6], the kon amounted to 346000 M⁻¹ s⁻¹. Further, the “EC50 (read off the curve)” value was roughly 0.9 nM in experiment [10], roughly 0.3 nM in experiment [1] and roughly 0.4 nM in experiment [2]. The IC50 in experiment [15] was 0.6 nM; in experiment [16], 65.3 nM.

B5: ch22D10 (antibody, human IgG1, kappa, V domains shown)
VH: QSVEESGGRLVTPGTPLTLTCTASGFTINDYHMNWVRQAPGKGLEWIGIISSNGDTYYASWAKGRFTISRTSTTVDLKMTSLTTEDTATYFCARDDRDRSYAFDPWGPGTLVTVSS
VL: ALVMTQTPSSVSAAVGGTVTINCRASEDIERYLAWYQQKPGQRPKLLIYGASTLASGVPSRFKGSGSGTEYTLTISGVQPDDAATYYCHQGDSSRNVVNVFGGGTEVVVKR
notes: Rabbit/human chimeric IgG1 kappa; also called chimeric 22D10
Take B5: in experiment [3], the Kd came out at 0.313 nM. For the same molecule, the EC50 in experiment [4] amounted to 0.34 nM; in [7], 0.43 nM; in [8] it was 0.24 nM; in experiment [12], 0.4 nM; in [13], 0.36 nM. Moreover, the dissociation rate constant (koff) in experiment [6] amounted to 0.000106 s⁻¹. The kon in experiment [6] was determined as 338000 M⁻¹ s⁻¹. For the same molecule, in [15], the concentration for half-maximal inhibition (IC50) was 0.22 nM.

B6: ch57B9 (antibody, human IgG1, kappa, V domains shown)
VH: QSVRETGGGLVQPGGSLTLSCEASEFTINIDYWISWVRQAPGKGLEWIGIIDPGDGTTYFAIWVSGRFTITRNTNLNTVDLKMTSLTEADTATYFCAREVSASAYQYDLWGPGTLVTVSS
VL: ALVMTQTPSSVSADVGGTVSINCQASEDIESYLAWYQQKPGQPPKLLIYFTSNLASGVPSRFKGSGSGTEYTLTISGVQPDDAATYYCQQGYRNSDVHNPFGGGTEVVVKR
notes: Rabbit/human chimeric IgG1 kappa; also called chimeric 57B9
Regarding B6, in [3], the Kd was found to be 0.239 nM. Also, the concentration giving a half-maximal response (EC50) in [4] stood at 0.91 nM; in [7], 1.73 nM; in experiment [8], 1.22 nM; in experiment [12], 0.89 nM; in experiment [13], 1.3 nM. Also, the off-rate (koff) in experiment [6] amounted to 8.8e-05 s⁻¹. Also, the kon in experiment [6] is 368000 M⁻¹ s⁻¹. For the same molecule, the concentration giving a half-maximal response (EC50 (read off the curve)) in experiment [10] was roughly 0.9 nM; in [1], roughly 0.1 nM; in experiment [2] it was roughly 0.3 nM. Moreover, the results for the IC50 in experiment [15] and in experiment [16] were 0.42 nM and 186 nM, respectively.

B7: hu23D8 (antibody, V domains shown)
VH: EQQLLESGGGLVQPGGSLRLSCAVSGLSLSSNAINWVRQAPGKGLEWIGMIYSGGRIEYASWAKGRFTISKDSSKNTVYLQMNSLRAEDTAVYFCAKGMSPSAHSSDIWGPGTLVTVSS
VL: EGVMTQSPATLSVSPGERATLSCQASQSISDNLSWYQQKPGQPPRLLIYDASDLASGVPARFSGSGSGTEFTLTISSLQSEDFAVYYCQQDWISSNVDNTFGGGTKVEIK
notes: Humanized antibody; also called humanized 23D8
For the molecule B7, the “EC50 (read off the curve)” value in experiment [1] is roughly 0.1 nM; in [2] it was roughly 0.5 nM.
